Results published in article PMC7340257, “Crystal structure and interaction studies of human DHTKD1 provide insight into a mitochondrial megacomplex in lysine catabolism” (IUCrJ, 2020).

Molecular target: the molecule itself
Assay: SEC; analytical gel filtration of hDHTKD1_(45–919) WT and p.R715C alone; 20 mM HEPES pH 7.5, 150 mM NaCl, 0.5 mM TCEP

B1: human DHTKD1 residues 45-919, p.R715C variant, His-tagged (enzyme, UniProt Q96HY7 45-919, looked up)
chain: GALERPPVDHGLARLVTVYCEHGHKAAKINPLFTGQALLENVPEIQALVQTLQGPFHTAGLLNMGKEEASLEEVLVYLNQIYCGQISIETSQLQSQDEKDWFAKRFEELQKETFTTEERKHLSKLMLESQEFDHFLATKFSTVKRYGGEGAESMMGFFHELLKMSAYSGITDVIIGMPHRGRLNLLTGLLQFPPELMFRKMRGLSEFPENFSATGDVLSHLTSSVDLYFGAHHPLHVTMLPNPSHLEAVNPVAVGKTRGRQQSRQDGDYSPDNSAQPGDRVICLQVHGDASFCGQGIVPETFTLSNLPHFRIGGSVHLIVNNQLGYTTPAERGRSSLYCSDIGKLVGCAIIHVNGDSPEEVVRATRLAFEYQRQFRKDVIIDLLCYRQWGHNELDEPFYTNPIMYKIIRARKSIPDTYAEHLIAGGLMTQEEVSEIKSSYYAKLNDHLNNMAHYRPPALNLQAHWQGLAQPEAQITTWSTGVPLDLLRFVGMKSVEVPRELQMHSHLLKTHVQSRMEKMMDGIKLDWATAEALALGSLLAQGFNVRLSGQDVGRGTFSQRHAIVVCQETDDTYIPLNHMDPNQKGFLEVSNSPLSEEAVLGFEYGMSIESPKLLPLWEAQFGDFFNGAQIIFDTFISGGEAKWLLQSGIVILLPHGYDGAGPDHSSCRIECFLQMCDSAEEGVDGDTVNMFVVHPTTPAQYFHLLRRQMVRNFRKPLIVASPKMLLRLPAAVSTLQEMAPGTTFNPVIGDSSVDPKKVKTLVFCSGKHFYSLVKQRESLGAKKHDFAIIRVEELCPFPLDSLQQEMSKYKHVKDHIWSQEEPQNMGPWSFVSPRFEKQLACKLRLVGRPPLPVPAVGIGTVHLHQHEDILAKTFA
notes: PDB 6sy1 is the wild-type parent of the same limits; source: E. coli BL21(DE3)R3-Rosetta, purified
binding result: binds
